{"source": "paper PMC12084609", "about": "“Structural insights into small-molecule agonist recognition and activation of complement receptor C3aR” (The EMBO Journal, 2025)", "key": {"C3aR V103^3.33A": {"target": "T1, C3aR V103^3.33A (Homo sapiens, UniProt Q16581, V103A)", "T1 construct": "expressed in transfected cells; host or cells: HEK293T", "T1 sequence (Q16581 1-482 V103A)": "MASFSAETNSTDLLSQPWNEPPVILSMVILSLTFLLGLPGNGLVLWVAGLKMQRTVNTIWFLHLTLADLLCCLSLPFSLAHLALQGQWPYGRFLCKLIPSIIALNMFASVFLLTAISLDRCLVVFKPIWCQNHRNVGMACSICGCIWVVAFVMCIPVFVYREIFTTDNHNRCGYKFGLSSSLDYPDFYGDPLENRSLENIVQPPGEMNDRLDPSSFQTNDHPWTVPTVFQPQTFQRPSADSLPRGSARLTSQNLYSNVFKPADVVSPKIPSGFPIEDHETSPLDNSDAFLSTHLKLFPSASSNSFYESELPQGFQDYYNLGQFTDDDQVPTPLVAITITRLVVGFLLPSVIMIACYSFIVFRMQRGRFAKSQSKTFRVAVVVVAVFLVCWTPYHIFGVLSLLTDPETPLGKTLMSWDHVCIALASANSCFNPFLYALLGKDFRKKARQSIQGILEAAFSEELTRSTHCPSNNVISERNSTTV", "experiment": "GloSensor-based cAMP assay, C3aR mutant V103A", "format": "cell-based", "settings": "for cAMP response (% Forskolin): single replicates", "protocol": "(§1) HEK293T cells were seeded on 6-well plates (NEST) and transfected with pGlosensor™-22F plasmids (Promega) and pcDNA3.1 plasmids encoding C3aR or its mutants an with N-terminal FLAG tag. After 48 h, cells were detached with Accutase solution (Sigma-Aldrich) and washed with PBS, and resuspended in assay buffer (CO2-independent medium with 0.5 mg mL^−1D-luciferin). 100,000–200,000 cells were seeded on 96-well white bottom plates (SPL) and incubated at 37 °C for 45 min followed by 45 min incubation at room temperature. After 90 min of incubation, basal luminescence signals were recorded. In total, 25 μl of test ligand with various concentrations and 1 μM Forskolin (Sigma-Aldrich) were treated to the cells and luminescence signals were measured by Tristar 2 LB 942 multimode reader (Berthold). […] Relative luminescence unit (%) was calculated with the signal of wells treated with vehicle as 0% and the signal of wells treated with 1 μM Forskolin as 100% (DiRaddo et al, [2014]). Nonlinear regression was performed using a three-parameter logistic equation."}, "C3aR I421^7.39A": {"target": "T2, C3aR I421^7.39A (Homo sapiens, UniProt Q16581, I421A)", "T2 construct": "expressed in transfected cells; host or cells: HEK293T", "T2 sequence (Q16581 1-482 I421A)": "T1 sequence (Q16581 1-482 V103A) with A103V, I421A", "experiment": "GloSensor-based cAMP assay, C3aR mutant I421A", "format": "cell-based", "settings": "for cAMP response (% Forskolin): I4217.39A, single replicates", "protocol": "as §1"}, "[1]": {"settings": "Dunnett's multiple comparisons test, WT minus mutant"}}, "note": "Changes are numbered by the printed parent chain. Values joined by “and” are separate entries in the source; they are usually repeats but may differ in a detail not shown here. Identical values can stand only once.", "data": [{"substance": "C3a: anaphylatoxin C3a, natural peptide ligand of C3aR (a 77-amino acid peptide), Sigma-Aldrich", "values": [{"measurement": "Mean Diff. of pIC50, WT vs. V103A", "setting": "C3aR V103^3.33A; [1]", "value": 0.086}, {"measurement": "cAMP response (% Forskolin)", "setting": "C3aR V103^3.33A; V103A, Log[C3a (M)] -7", "value": "16.81 % Forskolin and 17.64 % Forskolin and 16.37 % Forskolin"}, {"measurement": "cAMP response (% Forskolin)", "setting": "C3aR V103^3.33A; V103A, Log[C3a (M)] -8", "value": "18.63 % Forskolin and 17.74 % Forskolin and 17.49 % Forskolin"}, {"measurement": "cAMP response (% Forskolin)", "setting": "C3aR V103^3.33A; V103A, Log[C3a (M)] -9", "value": "66.34 % Forskolin and 67.98 % Forskolin and 37.55 % Forskolin"}, {"measurement": "cAMP response (% Forskolin)", "setting": "C3aR V103^3.33A; V103A, Log[C3a (M)] -10", "value": "87.50 % Forskolin and 90.87 % Forskolin and 75.99 % Forskolin"}, {"measurement": "cAMP response (% Forskolin)", "setting": "C3aR V103^3.33A; V103A, Log[C3a (M)] -11", "value": "101.77 % Forskolin and 100.57 % Forskolin and 97.94 % Forskolin"}, {"measurement": "cAMP response (% Forskolin)", "setting": "C3aR V103^3.33A; V103A, Log[C3a (M)] -12", "value": "105.75 % Forskolin and 100.95 % Forskolin and 97.98 % Forskolin"}, {"measurement": "ΔpIC50 ± SE of Diff.", "setting": "C3aR V103^3.33A; V103^3.33A relative to WT C3aR", "value": "-0.09 ± 0.05"}, {"measurement": "IC50", "setting": "C3aR V103^3.33A; V103^3.33A, dose-response plot, read-out: IC50", "value": 3.53, "unit": "nM"}, {"measurement": "pIC50 (Replicate)", "setting": "C3aR V103^3.33A; V103^3.33A, individual replicates", "value": "8.49 and 8.72 and 8.44 and 8.20"}, {"measurement": "pIC50 ± SEM (Mean)", "setting": "C3aR V103^3.33A; V103^3.33A, mean of independent experiments", "value": 8.46}, {"measurement": "cAMP response (% Forskolin)", "setting": "C3aR V103^3.33A; V1033.33A, Log[C3a (M)] -7", "value": "19.41 % Forskolin and 19.52 % Forskolin and 19.42 % Forskolin and 22.72 % Forskolin"}, {"measurement": "cAMP response (% Forskolin)", "setting": "C3aR V103^3.33A; V1033.33A, Log[C3a (M)] -8", "value": "24.04 % Forskolin and 22.92 % Forskolin and 25.51 % Forskolin and 44.96 % Forskolin"}, {"measurement": "cAMP response (% Forskolin)", "setting": "C3aR V103^3.33A; V1033.33A, Log[C3a (M)] -9", "value": "89.16 % Forskolin and 71.89 % Forskolin and 87.77 % Forskolin and 103.75 % Forskolin"}, {"measurement": "cAMP response (% Forskolin)", "setting": "C3aR V103^3.33A; V1033.33A, Log[C3a (M)] -10", "value": "100.58 % Forskolin and 94.90 % Forskolin and 95.96 % Forskolin and 103.23 % Forskolin"}, {"measurement": "cAMP response (% Forskolin)", "setting": "C3aR V103^3.33A; V1033.33A, Log[C3a (M)] -11", "value": "100.23 % Forskolin and 96.38 % Forskolin and 92.81 % Forskolin and 102.90 % Forskolin"}, {"measurement": "cAMP response (% Forskolin)", "setting": "C3aR V103^3.33A; V1033.33A, Log[C3a (M)] -12", "value": "97.59 % Forskolin and 96.90 % Forskolin and 93.29 % Forskolin and 103.97 % Forskolin"}, {"measurement": "Mean Diff. of pIC50, WT vs. I421A", "setting": "C3aR I421^7.39A; [1]", "value": -0.119}, {"measurement": "reduction in ligand-induced signaling vs WT", "setting": "C3aR I421^7.39A; I421^7.39A mutant", "value": "minor effect"}, {"measurement": "ΔpIC50 ± SE of Diff.", "setting": "C3aR I421^7.39A; I421^7.39A relative to WT C3aR", "value": "0.12 ± 0.03"}, {"measurement": "IC50", "setting": "C3aR I421^7.39A; I421^7.39A, dose-response plot, read-out: IC50", "value": 2.54, "unit": "nM"}, {"measurement": "pIC50 (Replicate)", "setting": "C3aR I421^7.39A; I421^7.39A, individual replicates", "value": "8.63 and 8.57 and 8.45 and 8.43 and 8.89 and 8.83"}, {"measurement": "pIC50 ± SEM (Mean)", "setting": "C3aR I421^7.39A; I421^7.39A, mean of independent experiments", "value": 8.61}, {"measurement": "cAMP response (% Forskolin)", "setting": "C3aR I421^7.39A; Log[C3a (M)] -7", "value": "16.32 % Forskolin and 12.05 % Forskolin and 12.43 % Forskolin and 14.57 % Forskolin and 9.51 % Forskolin and 8.99 % Forskolin and 8.25 % Forskolin"}, {"measurement": "cAMP response (% Forskolin)", "setting": "C3aR I421^7.39A; Log[C3a (M)] -8", "value": "20.11 % Forskolin and 16.00 % Forskolin and 16.82 % Forskolin and 18.52 % Forskolin and 13.73 % Forskolin and 11.22 % Forskolin and 10.34 % Forskolin"}, {"measurement": "cAMP response (% Forskolin)", "setting": "C3aR I421^7.39A; Log[C3a (M)] -9", "value": "77.07 % Forskolin and 83.92 % Forskolin and 80.09 % Forskolin and 92.33 % Forskolin and 88.01 % Forskolin and 57.33 % Forskolin and 61.66 % Forskolin"}]}]}
